Results as given in US11015206B2, “Compositions and methods comprising sequences having hydroxyphenylpyruvate dioxygenase (HPPD) activity” (PIONEER HI-BRED INTERNATIONAL, INC., priority 2014, dated 2021).
Changes are numbered by the printed parent chain.

B1: 189P: single substitution 189P in SEQ ID NO:2 (protein)
chain: MGPTPTATAAGAAVAAASAAEQAAFRLVGHRNFVRFNPRSDRFQTLAFHHVELWCADAASAAGRFSFALGVPLAARSDLSTGNSAHASLLLRSGSLSLLFTAPYAHGADAATAALPSFSAAAARRFAADHGLAVRAVALRVADAEDAFRASVAAGARPAFGPVDLGRGFRLAEVELYGDVVLRYVSYPPGAAGEPFLPGFEGVASPGAADYGLSRFDHIVGNVPELAPAAAYMAGFTGFHEFAEFTTEDVGTTESGLNSMALANNSENVLLPLNEPVHGTKRRSQIQTFLDHHGGPGVQHIALASDDVLRTLREMRARSAMGGFEFLPPPLSDYYDGVRRCAGDVLTEAQINECQELGVMVDRDDQGVLLQIFTKPVGDRPTFFLEIIQRIGCMEKDEKGQEYQKGGCGGFGKGNFGQLFKSIEDYEKSLEAKQAAAAATAQGS
modifications: Zea mays variant form created by artificial means.
B2: 227G: single substitution 227G in SEQ ID NO:2 (protein)
chain: B1 chain with P189D, A227G
modifications: Zea mays variant form created by artificial means.
B3: 191L: single substitution 191L in SEQ ID NO:2 (protein)
chain: B1 chain with P189D, A191L
modifications: Zea mays variant form created by artificial means.
B4: 342V: single substitution 342V in SEQ ID NO:2 (protein)
chain: B1 chain with P189D, A342V
modifications: Zea mays variant form created by artificial means.
B5: 431F: single substitution 431F in SEQ ID NO:2 (protein)
chain: B1 chain with P189D, E431F
modifications: Zea mays variant form created by artificial means.
B6: 214T: single substitution 214T in SEQ ID NO:2 (protein)
chain: B1 chain with P189D, S214T
modifications: Zea mays variant form created by artificial means.
B7: 205T: single substitution 205T in SEQ ID NO:2 (protein)
chain: B1 chain with P189D, S205T
modifications: Zea mays variant form created by artificial means.
B8: P056028-F-05 (protein)
chain: B1 chain with P189D, A191G, Q366E
modifications: Zea mays variant form created by artificial means.

tested on: 4-hydroxyphenylpyruvate dioxygenase (HPPD); experiment: ON rate ratio: HPPD reaction rate with vs without inhibitor in the 70 to 90 second interval; assay type: biochemical, Z. mays; conditions: Table 5; tembotrione
Outline: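 Indicator of inhibitor on-rate: reaction velocity in the 70 to 90 second window with 4 μM inhibitor divided by that without. Reactions contained 100 μM HPP and 60 or 120 nM HPPD; slower binding gives a larger ratio.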

Molecule	ON ratio (parameters with tembotrione)
B1	0.76
B2	0.79
B3	0.77
B4	0.78
B5	0.80
B6	0.74
B7	0.74

same assay, conditions: Table 7; tembotrione; combinatorial variants

Molecule	ON rate ratio
B8	0.700

same assay, conditions: inhibitor mesotrione

Molecule	Insensitivity, mesotrione, Rate ratio ON
B8	0.64

same assay, conditions: inhibitor tembotrione

Molecule	Insensitivity, tembotrione, Rate ratio ON
B8	0.70

tested on: 4-hydroxyphenylpyruvate dioxygenase (HPPD); experiment: OFF rate ratio: release of inhibitor from pre-formed enzyme-inhibitor complex; assay type: biochemical, Z. mays; conditions: Table 5; tembotrione
Outline: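 Inhibitor release from pre-formed complex (enzyme 7.2 μM, inhibitor 8 μM, 1 h RT) tracked as accelerating HPPD activity at 320 nm over 12 min, coupled via 50 nM HGD with 100 μM HPP at pH 7. OFF rate ratio: steady-state velocity relative to uninhibited initial velocity.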

Molecule	OFF ratio (parameters with tembotrione)
B1	0.22
B2	0.15
B3	0.20
B4	0.13
B5	0.16
B6	0.14
B7	0.20

same assay, conditions: Table 7; tembotrione; combinatorial variants

Molecule	OFF rate ratio
B8	0.395

same assay, conditions: inhibitor mesotrione

Molecule	Insensitivity, mesotrione, Rate ratio OFF
B8	1.00

same assay, conditions: inhibitor tembotrione

Molecule	Insensitivity, tembotrione, Rate ratio OFF
B8	0.39

tested on: 4-hydroxyphenylpyruvate dioxygenase (HPPD); experiment: Estimate of kcat from initial rate at saturating hydroxyphenylpyruvate without inhibitor (ON rate ratio assay); assay type: biochemical, Z. mays; conditions: Megatable 3; shuffled variants
Outline: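 kcat was estimated from the initial reaction rate with known enzyme level (60 or 120 nM HPPD). Hydroxyphenylpyruvate was at a saturating 100 μM, with no inhibitor present.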

Molecule	kcat
B8	0.457 s⁻¹

same assay, conditions: Table 5; single substitutions in Round 7 variant 9070 (SEQ ID NO:2); estimate from initial rate at saturating hydroxyphenylpyruvate without inhibitor

Molecule	kcat
B1	0.437 s⁻¹
B2	0.577 s⁻¹
B3	0.358 s⁻¹
B4	0.677 s⁻¹
B5	0.482 s⁻¹
B6	0.653 s⁻¹
B7	0.418 s⁻¹

same assay, conditions: Table 7; combinatorial variants

Molecule	kcat
B8	0.457 s⁻¹

tested on: 4-hydroxyphenylpyruvate dioxygenase (HPPD); experiment: HPPD activity coupled assay with HGD; substrate saturation kinetic parameters (kcat, KM); assay type: biochemical, Z. mays; conditions: Table 6
Outline: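 Coupled continuous assay: His-tagged HPPD (5 to 240 nM, E. coli-expressed, Ni-NTA-purified) with 50 nM P. aeruginosa HGD in 25 mM Hepes pH 7, 2 mM ascorbate, 10 μM FeSO4; maleylacetoacetate followed at 320 nm. KM and Vmax from Lineweaver-Burke fits over 3.33–100 μM HPP.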

Molecule	Km
B1	3.35 µM
B2	2.61 µM
B3	2.74 µM
B4	2.59 µM
B5	1.77 µM
B6	2.94 µM
B7	2.72 µM

same assay, conditions: Table 6; single substitutions in SEQ ID NO:2

Molecule	kcat
B1	0.697 s⁻¹
B2	0.755 s⁻¹
B3	0.548 s⁻¹
B4	0.903 s⁻¹
B5	0.513 s⁻¹
B6	1.4 s⁻¹
B7	0.573 s⁻¹

same assay, conditions: substrate saturation kinetic analysis

Molecule	Km	kcat
B8	2.39 µM	0.538 s⁻¹

tested on: 4-hydroxyphenylpyruvate dioxygenase (HPPD); experiment: Insensitivity parameter (ON × OFF) and trait fitness (ON × OFF × kcat/KM or × kcat); assay type: biochemical, Z. mays; set-up: key to ON × OFF / Insensitivity, mesotrione, ON × OFF / Insensitivity, tembotrione, ON × OFF / Insensitivity, topramezone, ON × OFF / Insensitivity, sulcotrione, ON × OFF / Insensitivity, isoxaflutole (DKN), ON × OFF: insensitivity = ON rate ratio × OFF rate ratio (surrogate for KD); conditions: DKN (diketonitrile form of isoxaflutole)
Outline: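 Trait fitness combines catalysis and insensitivity as kcat/KM × ON rate ratio × OFF rate ratio. The insensitivity parameter is the product of ON and OFF rate ratios, used in place of KD because the ON rate ratio is inverse.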

Molecule	Insensitivity parameter, ON × OFF
B1	0.32
B2	0.26
B3	0.38
B4	0.22
B5	0.26
B6	0.21
B7	0.30

same assay, conditions: Megatable 3; shuffled variants

Molecule	ON × OFF	ON × OFF × kcat
B8	0.276	7.57

same assay, conditions: Mesotrione; Table 6

Molecule	Insensitivity parameter, ON × OFF
B1	0.51
B2	0.52
B3	0.45
B4	0.42
B5	0.53
B6	0.41
B7	0.47

same assay, conditions: Sulcotrione

Molecule	Insensitivity parameter, ON × OFF
B1	0.62
B2	0.63
B3	0.56
B4	0.51
B5	0.59
B6	0.50
B7	0.60

same assay, conditions: Table 5; tembotrione

Molecule	ON × OFF × kcat, Value
B1	4.31
B2	4.09
B3	3.35
B4	4.08
B5	3.61
B6	4.03
B7	3.72

same assay, conditions: Table 5; tembotrione; fold vs maize wild type HPPD

Molecule	ON × OFF × kcat, Fold vs wt	ON × OFF, fold vs wt
B1	4.02	32.3
B2	3.83	23.2
B3	3.13	30.5
B4	3.82	19.7
B5	3.37	24.5
B6	3.76	20.2
B7	3.48	29.0

same assay, conditions: Table 5; tembotrione; insensitivity parameter

Molecule	ON × OFF (parameters with tembotrione)
B1	0.16
B2	0.12
B3	0.16
B4	0.10
B5	0.13
B6	0.10
B7	0.15

same assay, conditions: Table 7; tembotrione; combinatorial variants

Molecule	ON × OFF	ON × OFF × kcat
B8	0.276	7.57

same assay, conditions: Tembotrione

Molecule	Insensitivity parameter, ON × OFF
B1	0.25
B2	0.22
B3	0.33
B4	0.17
B5	0.19
B6	0.17
B7	0.22

same assay, conditions: Topramezon

Molecule	Insensitivity parameter, ON × OFF
B1	0.31
B2	0.28
B3	0.37
B4	0.23
B5	0.27
B6	0.23
B7	0.29

same assay, conditions: inhibitor mesotrione

Molecule	Insensitivity, mesotrione, ON × OFF	Insensitivity, mesotrione, Trait Fitness
B8	0.64	8.7

same assay, conditions: inhibitor tembotrione

Molecule	Insensitivity, tembotrione, ON × OFF	Insensitivity, tembotrione, Trait fitness
B8	0.28	3.74
